# Measured values published in patent US20040253612A1.
# What was measured:
# [1] = molecular target: 33 amino acid myc-epitope peptide coded for by RNA124; assay: immunoprecipitation of myc-epitope peptide compared with β-globin translation product
# [2] = molecular target: 33 amino acid myc-epitope peptide coded for by RNA124; assay: immunoprecipitation of in vitro translated peptide, lane 4 (dilution buffer wash)
# [3] = molecular target: c-myc monoclonal antibody 9E10; assay: immunoprecipitation with 9E10 and protein A-sepharose, acetic acid elution
# [4] = molecular target: c-myc monoclonal antibody 9E10; assay: competitive immunoprecipitation, 35S-labeled fusion, competitor unlabeled synthetic myc peptide
# 33 amino acid myc-epitope peptide coded for by RNA124, sequence (peptide, as listed by the source): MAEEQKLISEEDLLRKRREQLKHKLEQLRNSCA
substance,measurement,setting,value
c-myc monoclonal antibody 9E10,purification (fold) against β-globin protein,[1],> 100 fold
same,percent of the total TCA precipitable counts isolated,[2],83%
wild type c-myc fusion construct (peptide),percentage bound to the anti-myc antibody,[3],35%
same,percent bound in the presence of unlabeled myc peptide,[4],9%
